The term Kd denotes the concentration at which binding is half-saturated. A lower Kd goes with higher affinity.

The text below walks through data of the Immune Epitope Database (IEDB).

In one assay the target is HLA-B*73:01. The assay can be described thus: IEDB peptide-MHC binding, purified MHC/competitive/fluorescence; filed as Kd, often an IC50 or EC50 that approximates it; ≥ and ≤ were set here for values at or beyond the usual limits of such assays. To be noted: source organism: Francisella tularensis subsp. tularensis FSC198.
The target of the next assay is HLA-A*03:01. Briefly: IEDB peptide-MHC binding, purified MHC/direct/fluorescence; filed as Kd, often an IC50 or EC50 that approximates it; ≥ and ≤ were set here for values at or beyond the usual limits of such assays.
Another assay deals with HLA-B*46:01. The assay is described as above.
Assay [1] has as its target HLA-A*68:02. The description is as above.
The target in another assay is HLA-A*02:03. Described as above.
The next assay addresses HLA-B*18:01. Described as above.
A further assay addresses HLA-A*02:11. The assay is described as above.
Assay [2] addresses HLA-B*15:17. Described as above.
Another assay has as its target HLA-B*27:03. The assay is described as above.
The next assay has as its target HLA-A*69:01. The description is as above.
In another assay the target is HLA-A*26:01. The assay is described as above.
Assay [3] deals with HLA-B*39:01. The assay is described as above.
The target in a further assay is HLA-A*24:03. Described as above.
In another assay the target is HLA-B*15:01. The description is as above.
The target of another assay is HLA-A*02:12. The assay is described as above.
The next assay concerns the target HLA-B*57:01. Described as above.
The target in another assay is HLA-B*58:01. Described as above.
The target in another assay is HLA-A*02:01. The description is as above.
The next assay concerns the target HLA-B*48:01. Described as above.
The next assay has as its target HLA-B*40:01. The description is as above.
In another assay the target is HLA-B*07:02. The description is as above.
The target in a further assay is HLA-B*27:05. The description is as above.
In another assay the target is HLA-B*44:02. Described as above.
For the next assay, the target named is HLA-A*11:01. The description is as above.
The target in another assay is HLA-A*31:01. The description is as above.
A further assay deals with HLA-A*01:01. The assay is described as above.
For another assay, the target named is HLA-B*15:09. Briefly: IEDB peptide-MHC binding, purified MHC/competitive/fluorescence; filed as Kd, often an IC50 or EC50 that approximates it; ≥ and ≤ were set here for values at or beyond the usual limits of such assays.
The target in assay [4] is HLA-B*08:01. The description is as above. Particulars: source organism: Brucella canis ATCC 23365.
In assay [5] the target is HLA-B*39:01. The description is as above. Particulars: source organism: Brucella canis ATCC 23365.
Another assay addresses HLA-A*29:02. Briefly: IEDB peptide-MHC binding, purified MHC/direct/fluorescence; filed as Kd, often an IC50 or EC50 that approximates it; ≥ and ≤ were set here for values at or beyond the usual limits of such assays. To be noted: source organism: Vibrio vulnificus YJ016.
The target in a further assay is HLA-B*51:01. Described as above.
A further assay concerns the target HLA-A*02:19. Described as above.
The target of a further assay is HLA-A*02:16. The assay is described as above. Particulars: source organism: Vibrio vulnificus YJ016.
Assay [6] addresses HLA-B*08:01. The description is as above. To be noted: source organism: Coxiella burnetii Q321.
For assay [7], the target named is HLA-A*68:02. The assay can be described thus: IEDB peptide-MHC binding, purified MHC/competitive/fluorescence; filed as Kd, often an IC50 or EC50 that approximates it; ≥ and ≤ were set here for values at or beyond the usual limits of such assays. Particulars: source organism: Coxiella burnetii RSA 331.
Assay [8] concerns the target HLA-B*15:17. The assay is described as above. Particulars: source organism: Coxiella burnetii RSA 331.
The next assay concerns the target HLA-B*35:01. The assay is described as above. To be noted: source organism: Coxiella burnetii RSA 331.
The mark [9] stands for this setting: source organism: Giardia lamblia ATCC 50803.
Setting [10] is: source organism: Brucella abortus 2308.
Where [11] appears, read: source organism: Vibrio vulnificus YJ016.
Setting [12] is: source organism: Coxiella burnetii.
Setting [13] is: source organism: Yersinia pestis CA88-4125.

YRAKVKPWA yielded a dissociation constant Kd with HLA-B*73:01 of 4.5 µM.

For the sequence VLLISDPGL, the Kd in the assay with HLA-A*03:01 (setting [9]), in the assay with HLA-B*46:01 (setting [9]), in the assay with HLA-A*68:02 [1] (setting [9]), in the assay with HLA-A*02:03 (setting [9]), in the assay with HLA-B*18:01 (setting [9]) and with HLA-A*02:11 (setting [9]) was at least 20 µM in each case. For the same sequence, the Kd with HLA-B*15:17 [2] (setting [9]) is 0.254 µM; with HLA-B*27:03 (setting [9]), at least 20 µM; with HLA-A*69:01 (setting [9]), at least 20 µM; in the assay with HLA-A*26:01 (setting [9]), at least 20 µM; with HLA-B*39:01 [3] (setting [9]), at least 20 µM; in the assay with HLA-A*24:03 (setting [9]) it was at least 20 µM. Also, the dissociation constant Kd with HLA-B*15:01 (setting [9]), in the assay with HLA-A*02:12 (setting [9]) and with HLA-B*57:01 (setting [9]) was at least 20 µM each time.

On to IEVKFHPIL, for which the Kd with HLA-A*03:01 (setting [10]) was at least 20 µM; with HLA-B*58:01 (setting [10]) it was at least 20 µM; in the assay with HLA-A*02:01 (setting [10]) it was at least 20 µM; in the assay with HLA-A*68:02 [1] (setting [10]), at least 20 µM; with HLA-B*18:01 (setting [10]) it was 0.006 µM; with HLA-B*15:17 [2] (setting [10]) it was at least 20 µM. The Kd is 0.534 µM with HLA-B*48:01 (setting [10]); at least 20 µM in the assay with HLA-A*69:01 (setting [10]); 0.013 µM with HLA-B*40:01 (setting [10]); at least 20 µM in the assay with HLA-A*26:01 (source organism: Brucella suis 1330); at least 20 µM with HLA-B*07:02 (setting [10]); at least 20 µM with HLA-B*27:05 (setting [10]). For the same sequence, the dissociation constant (Kd) with HLA-B*15:01 (setting [10]), with HLA-B*44:02 (setting [10]), with HLA-A*11:01 (setting [10]), with HLA-A*31:01 (setting [10]), with HLA-B*57:01 (setting [10]) and in the assay with HLA-A*01:01 (setting [10]) was at least 20 µM each time. In addition, the results for the Kd with HLA-B*15:09 (source organism: Brucella canis ATCC 23365), with HLA-B*08:01 [4] and in the assay with HLA-B*39:01 [5] were 0.0868 µM, 0.811 µM and 1.06 µM, respectively.

Turning to MKYVWPPIM, the Kd with HLA-A*03:01 (setting [11]), in the assay with HLA-B*46:01 (setting [11]), with HLA-A*02:01 (setting [11]), with HLA-A*29:02, in the assay with HLA-B*51:01 (setting [11]) and with HLA-A*02:03 (setting [11]) was at least 20 µM throughout. The Kd with HLA-B*18:01 (setting [11]), with HLA-A*02:11 (setting [11]), with HLA-A*02:19 (setting [11]), with HLA-B*27:03 (setting [11]), in the assay with HLA-A*69:01 (setting [11]) and with HLA-A*26:01 (setting [11]) was at least 20 µM each time. Further, the Kd in the assay with HLA-B*15:01 (setting [11]), with HLA-A*02:12 (setting [11]), in the assay with HLA-A*02:16 and with HLA-B*57:01 (setting [11]) was at least 20 µM each time.

For the sequence HEGDIVPLF, the Kd with HLA-A*03:01 (setting [12]) was at least 20 µM; with HLA-B*58:01 (setting [12]) it was at least 20 µM; in the assay with HLA-A*02:01 (setting [12]), at least 20 µM; with HLA-B*48:01 (setting [12]) it was at least 20 µM; with HLA-A*69:01 (setting [12]), at least 20 µM; with HLA-B*40:01 (setting [12]), 0.312 µM. Further, the Kd in the assay with HLA-B*07:02 (setting [12]) was at least 20 µM; with HLA-B*27:05 (setting [12]), at least 20 µM; with HLA-B*08:01 [6], at least 20 µM; in the assay with HLA-B*39:01 [3] (source organism: Coxiella burnetii Q321), at least 20 µM; in the assay with HLA-B*15:01 (setting [12]), 15 µM; in the assay with HLA-B*44:02 (setting [12]) it was 6 µM. Further, the Kd with HLA-A*11:01 (setting [12]), in the assay with HLA-A*31:01 (setting [12]), with HLA-B*57:01 (setting [12]), with HLA-A*01:01 (setting [12]), in the assay with HLA-B*15:09 (source organism: Coxiella burnetii RSA 331) and in the assay with HLA-A*68:02 [7] was at least 20 µM throughout. Further, the dissociation constant (Kd) with HLA-B*15:17 [8] is 0.644 µM; with HLA-B*35:01, 0.183 µM.

For LPEAYQWHI, the Kd in the assay with HLA-A*03:01 (setting [13]) is at least 20 µM; with HLA-B*46:01 (setting [13]), at least 20 µM; with HLA-B*51:01 (setting [13]), 0.484 µM; with HLA-A*02:03 (setting [13]), at least 20 µM; with HLA-B*18:01 (setting [13]), at least 20 µM; with HLA-A*02:11 (setting [13]), at least 20 µM. For the same sequence, the dissociation constant Kd with HLA-A*02:19 (setting [13]), in the assay with HLA-B*27:03 (setting [13]), in the assay with HLA-A*26:01 (setting [13]), in the assay with HLA-B*39:01 [3] (setting [13]), with HLA-A*24:03 (setting [13]) and in the assay with HLA-B*15:01 (setting [13]) was at least 20 µM in each case. Moreover, the Kd in the assay with HLA-A*02:12 (setting [13]) and with HLA-B*57:01 (setting [13]) was at least 20 µM in each case.
